# Source: article PMC6610143 (Nature Communications, 2019)
# No end group written: not given here.
# T1: biotin-labeled HA peptide (HA epitope peptide (influenza A virus …, also: biotin label, position not given here))
# T1 chain: YPYDVPDYA
# T2: mitoNEET (Mito) fused to mCherry and 1 × HA (synthetic HA epitope tag (influenza A …, UniProt P03437))
# T2 chain: YPYDVPDYA
# T3: mitoNEET (Mito) fused to mCherry and the spaghetti monster HA tag (synthetic HA epitope tag (influenza A …))
# T3 construct: also called Mito-mCh-smHA; smHA-tagged Mito; source: U2OS, transfected, in living cells; not shown: mCherry, internal (between Mito and smHA), kept
# T3 chain: YPYDVPDYA
# B1: purified recombinant HA frankenbody fused to GFP (from pET23b-FB-GFP) (scFv, V domains shown)
# VH: EVKLVESGGGLVKPGGSLKLSCAASGFTFSSYGMSWVRQTPEKRLEWVATISRGGSYTYYPDSVKGRFTISRDNAKNTLYLQMSSLRSEDTAIYYCARRETYDEKGFAYWGQGTTLTVSS
# VL: DIVLTQSPASLTVSLGQRATISCKSSQSLLNSGNQKNYLTWYQQKPGQPPKLLIYWASTRESGIPARFSGSGSGTDFTLNIHPVEEEDAATYYCQNDNSHPLTFGAGTKLEI
# notes: also called purified FB-GFP; purified frankenbody; source: E. coli BL21 (DE3) pLysS, purified (HisTrap HP, Superdex 200)
# B2: HA frankenbody fused to mEGFP (χ15F11^HA) (scFv, V domains shown)
# VH: B1 VH
# VL: B1 VL
# notes: also called FB-GFP; FB
# Experiments:
# [1] = molecular target: T1, biotin-labeled HA peptide; assay: SPR; conditions: both partners purified
# [2] = molecular target: T2, mitoNEET (Mito) fused to mCherry and 1 …; conditions: partners not purified
# [3] = molecular target: T3, mitoNEET (Mito) fused to mCherry and …; assay: co-localisation of the fluorescent scFv with its tagged target in living cells; conditions: partners not purified
Binder,Kd [1],Mito/Bg (mitochondria to background fluorescent intensity ratio) [2],Mito/Bg (mitochondria to background fluorescent intensity ratio) [3]
B1,14.7 ± 7.4 nM,–,–
B2,–,3.5,16.6
